The experiment addresses T1, 金黄色葡萄球菌肠毒素B (Staphylococcus aureus, UniProt P01552 28-266).
T1 construct: also called SEB
T1 sequence: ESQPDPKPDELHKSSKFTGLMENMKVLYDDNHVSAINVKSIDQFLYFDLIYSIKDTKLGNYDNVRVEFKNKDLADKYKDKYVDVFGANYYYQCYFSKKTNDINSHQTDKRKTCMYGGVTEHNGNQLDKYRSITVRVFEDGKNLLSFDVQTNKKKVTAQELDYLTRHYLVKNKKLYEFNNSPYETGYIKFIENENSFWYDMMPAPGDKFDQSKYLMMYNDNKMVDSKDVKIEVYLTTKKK
The experiment is described as follows: phage ELISA on coated SEB, HRP anti-M13 detection. In general terms: ELISA stands for enzyme-linked immunosorbent assay.

B1: 噬菌体克隆B7 (VHH)
VHH: ESGGGLVQAGGSLRLSCKVSGFNFREHALAWFRQAPGKEREGVSCIRGSGDYTTYADSVKGRFTISRDNAQNTLYLQMNSLRPEDTAMYYCAAARYARYYPNNCLDSAEYGYWGQGTLVTVS
notes: also called B7克隆
Consider B1, for which the binding result is reported as “binds”.

The values are drawn from patent CN110526968A (UNIV NORTHWEST A&F, dated 2019).
